From patent US20250144213A1 (UTC THERAPEUTICS SHANGHAI, published 2025)

T1: BCMA-Fc recombinant protein (human, UniProt Q02223 1-54)
T1 construct: Soluble staining reagent, 5 µg/ml; not shown: Fc part
T1 sequence (looked up): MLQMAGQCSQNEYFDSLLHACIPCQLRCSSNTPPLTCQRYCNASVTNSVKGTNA

T2: CD123-Fc recombinant protein (human, UniProt P26951 19-305)
T2 construct: Soluble staining reagent; also called CD123-Fc protein; not shown: Fc part
T2 sequence (looked up): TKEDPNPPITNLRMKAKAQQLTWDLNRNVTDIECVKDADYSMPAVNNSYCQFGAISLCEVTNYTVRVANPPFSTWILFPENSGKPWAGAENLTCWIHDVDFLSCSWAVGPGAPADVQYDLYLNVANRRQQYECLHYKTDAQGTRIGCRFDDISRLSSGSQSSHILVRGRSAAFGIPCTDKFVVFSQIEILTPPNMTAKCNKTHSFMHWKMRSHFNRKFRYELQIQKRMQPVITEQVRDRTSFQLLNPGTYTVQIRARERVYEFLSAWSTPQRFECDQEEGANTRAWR

B1: anti-BCMA scFv BCMA32 (scFv)
scFv: QSALTQPASVSGSPGQSITISCTGTSSDVGGYNYVSWYQQHPGKAPKLMIYDVSKRPSGVSNRFSGSKSGNTASLTISGLQAEDEADYYCSSYTSSSTVVFGGGTKLTVLGGGGSGGGGSGGGGSQVQLQESGAEVKKPGSSVKVSCKASGGTFSRYAISWVRQAPGQGLEWMGGIIPFFGTSDYAQKFQGRVTITADESTSTAYMDLSRLRSEDTAVYYCAVRVATTGTGFYYAMDVWGQGTTVTVSS
notes: also called BCMA32 scFv; BCMA32 CAR
B2: anti-BCMA scFv BCMA31 (scFv)
scFv: QSALTQPPSASGSPGQSVTISCTGTSSDVGTYNYVSWYQQHPGKAPKLMIYDVNQRPSGVPDRFSGSKSGNTASLTVSGLQAEDEADYYCSSYGGSNNLVFGGGTKVTVLGGGGSGGGGSGGGGSEVQLVESGGGLIQPGGSLRLSCAASGFTFSSYWMSWVRQSPGKGLEWVANIKPDGSDKYYVDSVKGRFTISRDNAKNSLDLQMNSLRGEDTAIYYCARGATTYGSWGQGTLVTVSS
notes: also called BCMA31 scFv; BCMA31 CAR
B3: anti-BCMA scFv BCMA22 (scFv)
scFv: QSALTQPASVSGSPGQSITISCTGTSSDVGGYNYVSWYQQHPGKAPKLMIYEVTNRPSGVSNRFSGSKSGNTASLTISGLQAEDEAHYYCISYTSSSTLDYVFGTGTKVTVLGGGGSGGGGSGGGGSEVQLVESGPGLVKPSGTLSLTCAVSGGSISSSNWWSWVRQPPGKGLEWIGEIYHSGSTNYNPSLKSRVTISVDKSKNQFSLKLSSVTAADTAVYYCARVGSGYSYGYGDRVLDYWGQGTLVTVSS
notes: also called BCMA22 scFv; BCMA22 CAR
B4: anti-BCMA scFv BCMA23 (scFv)
scFv: QSALTQPPSASGTPGQRVTISCSGSSPNIGGNSVNWYQQLPGTAPKLLMYTNNQRPSGVPDRFSGSKSGTSASLAISGLQSEDEADYYCAAWDDSLNGVVFGGGTKLTVLGGGGSGGGGSGGGGSQVQLVQSGAEVKKPGESLKISCKGSGYSFTSYWIGWVRQMPGKGLEWMGIIYPGDSDTRYSPSFQGQVTISADKSISTAYLQWSSLKASDTAMYYCARRGGALDYWGQGTLVTVSS
notes: also called BCMA23 scFv; BCMA23 CAR
B5: anti-BCMA scFv BCMA30 (scFv)
scFv: DIQMTQSPSFLSASVGDRVTITCRASQGISSYLAWYQQKPGKAPKLLIYAASTLQSGVPSRFSGSGSGTEFTLTISSLQPEDFATYYCQQLNSYPPWTFGQGTKVEIKGGGGSGGGGSGGGGSQVQLVQSGAEVKKPGESLKISCKGSGYRFTSYWIGWVRQMPGKGLEWMGIIYPGDSDTRYSPPFQGQVTISADKSIDTAYLQWSSLKASDTAMYYCARLDASGSQRGGMDVWGQGTTVTVSS
notes: also called BCMA30 scFv; BCMA30 CAR
B6: anti-BCMA scFv BCMA33 (scFv)
scFv: QSALTQPPSASGSPGQSVTISCTGTSSDVGGYNYVSWYQQHPGKAPKLMIYEVSKRPSGVPDRFSGSKSGNTASLTVSGLQAEDEADYFCSSYAGSNNFVVFGGGTKLTVLGGGGSGGGGSGGGGSEVQLVESGGGLVQPGRSLRLSCAASGFTFDDYAMHWVRQAPGKGLEWVSGISWNSGSIGYADSVKGRFTISRDNAKNSLYLQMNSLRAEDTALYYCAKVGASAALGAFDIWGQGTMVTVSS
notes: also called BCMA33 scFv; BCMA33 CAR
B7: anti-BCMA scFv BCMA34 (scFv)
scFv: QPGLTQPPSVSKGLRQTATLTCTGNSNNVGNQGAAWLQQHQGHPPKLLSYRNNNRPSGISERFSASRSGNTASLTITGLQPEDEADYYCSAWDSSLSARVFGGGTKLTVLGGGGSGGGGSGGGGSQVQLVQSGAEVKKPGASVKVSCKTSGYTFSNPFVHWVRQAPGQGLEWVGIINLSGGDTLYAQKFQGGVTMTRDTSTNTAYMELTSLTFEDTAVYYCARDQAGFGDSAYWGQGTLVTVSS
notes: also called BCMA34 scFv; BCMA34 CAR
B8: anti-BCMA scFv BCMA27 (scFv)
scFv: QSALTQPPSASGSPGQSVTISCTGSRSNVGSYNDVSWYQQHPGKAPKLIIYDVDKRPAGVPDRFSGSKSGNTASLTVSGLQAEDDADYYCSSYGGTYSLFVFGTGTELTVLGGGGSGGGGSGGGGSEVQLVESGGDLVQPGGSLRLSCAASGFTFSSYGMHWVRQAPGKGLEWVAVISYDGSNKYYADSVKGRFTISRDNSKNTLYLQMNSLRAEDTAVYYCAKEEFYGDSSYGMDVWGQGTTVTVSS
notes: also called BCMA27 scFv; BCMA27 CAR
B9: anti-BCMA scFv BCMA28 (scFv)
scFv: QSALTQPPSVSEAPRQRVTISCSGSSSNIGQNAVNWYQKLPGKAPKLLIYYNDLVSSGVSDRFSGSKSGTSASLAISGLQSEDEADYYCATWDDSLNGVVFGGGTKVTVLGGGGSGGGGSGGGGSQVQLVQSGPGLVKPSQTLSLTCAISGDSVSSNSAAWNWIRQSPSRGLEWLGRTYYRSKWYNDYAVSVKSRITINPDTSKNQFSLQLNSVTPEDTAVYYCARDYYYGMDVWGQGTTVTVSS
notes: also called BCMA28 scFv; BCMA28 CAR
B10: anti-BCMA scFv BCMA24 (scFv)
scFv: QSVLTQPPSASGTPGQRVTISCSGSSSNIGSYSVNWYQQIPGTAPKLLIYSNNQRPSGVPDRFSGSKSGTSASLAISGLQSEDEADYSCAAWDDSLNGVVFGGGTKLTVLGGGGSGGGGSGGGGSQVQLVQSGAEVKKPGSSVKVSCKASGGTFSSYAISWVRQAPGQGLEWMGGIIPIFGTANYAQKFQGRVTITADESTSTAYMELSSLRSEDTAVYYCARGSFYSSVNVWGQGTTVTVSS
notes: also called BCMA24 scFv; BCMA24 CAR
B11: anti-CD40 scFv 40-45 (in LACOSTIM 40-45.28) (scFv)
scFv: QSALTQPASVSGSPGQSITISCTGTSSDVGGYKYVSWYQQHPGKAPKLMIYDVSNRPSGVSNRFSGSKSGNTASLTISGLQAEDEADYYCSSYTSSSTPHVVFGGGTKVTVLGGGGSGGGGSGGGGSEVHLVESGGGVVQPGRSLRLSCAASGFPFSRYGMHWVRQAPGKGLEWVSYISSSGSTIYYADSVKGRFTISRDNSKNTVSLQMNSLRADDTAVYYCSRGTRPGITGRLGYWGQGTLVTVSS
notes: Tested on T cells as part of the LACOSTIM 40-45.28 (scFv fused with CD28), co-electroporated with the anti-Her2 CAR 4D5.BBZ; also called 40-45 scFv
B12: anti-CD40 scFv 40-37 (in LACOSTIM 40-37.28) (scFv)
scFv: SYELTQPPSVSVSPGQTASITCSGDKLGNKYASWYQQKPGQSPVLVIFQDSRRPSGIPERFSGSNSGNTATLTISGTQAMDEADYYCQAWDSSTALFGGGTKLTVLGGGGSGGGGSGGGGSQVQLVQSGGGVVQPGRSLRLSCAASGFTFSSYAMHWVRQAPGKGLEWVAVISKDGSYENYVDSVKGRLAISRDNSKNTLFLQMDSLRPEDTALYFCARDYWYGMDVWGQGTTVTVSS
notes: Tested on T cells as part of the LACOSTIM 40-37.28 (scFv fused with CD28), co-electroporated with the anti-Her2 CAR 4D5.BBZ; also called 40-37 scFv
B13: anti-CD123 scFv-C30 (scFv)
scFv: AIRLTQSPSSLSASVGDRVTITCQASQNINNYLNWYQQKSGKAPKLLIYDASNLEAGVPSRFSGSASGTDFTFTISSLQPEDIATYYCQQNDNLPLTFGQGTRLEIKGGGGSGGGGSGGGGSEVQLVESGGGVVRPGGSLRLSCAASGFTFGDYGMSWVRQAPGKGLEWVSGINWNGGSTGYADSVKGRFTISRDNAKNSLYLQMNSLRAEDTALYYCARDRAPDYGDYLQVGTTDYWGQGTLVTVSS
notes: also called C30 scFv
B14: anti-CD123 scFv-C27 (scFv)
scFv: EIVLTQSPGTVSLSPGERATLSCRASQRVSATYLAWYQQKPGQAPRLLMYGGSRRATGIPDRFSGSGSGTDFTLTIRRLEPEDSAVYYCQQYGSSPLTFGGGTKLEIKGGGGSGGGGSGGGGSQVQLVQSGSELKKPGASVKVSCKASGYTFTSYGISWVRQAPGQGLEWMGWISAYNGNTNYAQKLQGRVTMTTDTSTSTAYMELRSLRSDDTAVYYCARDPYDDYGGNSRDEEDAFDIWGQGTTVTVSS
notes: also called C27 scFv
B15: anti-CD123 scFv-C33 (scFv)
scFv: DIRLTQSPSSLSASVGDTITITCRASQDISSWIAWYQQKPGTAPRLLIYAASSLQSGVPSRFSGSGSGTDFTLTINSLHPEDFATYYCQQGSTFPLAFGGGTKVEIKGGGGSGGGGSGGGGSQVQLVQSGAEVKKPGSSVKVSCKASGGTFSSYAISWVRQAPGQGLEWMGGIIPIFGTANYAQKFQGRVTITADESTSTAYMELSSLRSEDTAVYYCARGLDNWNDVGWFDPWGQGTLVTVSS
notes: also called C33 scFv
B16: anti-CD123 scFv-C34 (scFv)
scFv: QSALTQPPSASGSPGQSVTISCTGTRSDVGAYNYVSWYQHHPGKAPKLMLYDVSKRPSGVSDRFSGSKSGNTASLTVSGLQSEDEANYYCSSYAGSGKYVFGSGTELTVLGGGGSGGGGSGGGGSEVHLVESGGGLVKPGGSLRLSCAASGFTFSDTWMSWVRQAPGKGLEWVGRIKSKTDGGTTNYAAPVKGRFTISRDDSKTTLFLQMNSLKTEDTAVYYCTGGDYPLFAYWGQGALVTVSS
notes: also called C34 scFv
B17: anti-CD123 scFv-C26 (scFv)
scFv: QSVLTQPPSASGTPGQRVTISCSGSRSNIGSNTVSWYQQFPGTAPKLLIYLNNQRPSGVPDRFSGSKSGTSASLAISGLQSEDEAEYYCATWDDDLNGVFGGGTKLTVLGGGGSGGGGSGGGGSEVQLVESGGGLVQPGGSLRLSCAASGFTLSNFEMNWVRQAPGRGLEWVSYISATTSATSYADSVKGRFTISRDNAKNSLYLQMNSLRAEDTAVYYCARVRDGYNFGYYYYYMDVWGKGTTVTVSS
notes: also called C26 scFv
B18: anti-CD123 scFv-C32 (scFv)
scFv: QSVVTQPPSASGTPGQRVTISCSGSSSNIEGNTVSWYQQFPGAAPKLLIYSNSYRASGVPDRFSGSKSGTSASLAISELQSEDEADYYCSAWDDSLNGPVFGGGTKVTVLGGGGSGGGGSGGGGSEVQLVESGGGLVQPGGSLRLSCAASGFTFTSYAMNWVRQAPGKGLEWVSDISSSSSYIYYADSVKGRFTISRDNAKNSLYLQMNSLRAEDTAVYYCARDLYSGYDYGYYYGMDVWGQGTTVTVSS
notes: also called C32 scFv

Molecular target: T1, BCMA-Fc recombinant protein
Assay: flow cytometry: lentivirally transduced CAR-T cells stained with 5 µg/ml BCMA-Fc, detected with anti-human IgG Fc (FIG. 17B)

binding result	Binder
binds	B1
binds	B2
binds	B3
binds	B4
binds	B5
binds	B6
binds	B7
binds	B8
binds	B9
binds	B10

Molecular target: T3, CD40-Fc recombinant protein (human, UniProt P25942 21-193)
T3 construct: Soluble staining reagent; also called CD40-Fc protein; not shown: Fc part
T3 sequence (P25942 21-193 limits assumed): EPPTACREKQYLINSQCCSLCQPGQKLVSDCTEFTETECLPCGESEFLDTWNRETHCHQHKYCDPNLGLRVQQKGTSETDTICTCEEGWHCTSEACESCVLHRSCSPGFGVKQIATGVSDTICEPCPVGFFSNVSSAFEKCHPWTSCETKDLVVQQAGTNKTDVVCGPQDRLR
Assay: FACS staining of T cells expressing the anti-CD40 scFv-CD28 fusion with CD40-Fc protein (FIG. 64)

binding result	Binder
binds	B11
binds	B12

Molecular target: T2, CD123-Fc recombinant protein
Assay: FACS staining of CAR-T cells with CD123-Fc recombinant protein (FIG. 28)

binding result	Binder
binds	B13
binds	B14
binds	B15
binds	B16
binds	B17
binds	B18
